Experimental data published in article PMC6716841, “Modification of acetoacetyl-CoA reduction step in Ralstonia eutropha for biosynthesis of poly(3-hydroxybutyrate-co-3-hydroxyhexanoate) from structurally unrelated compounds” (Microbial Cell Factories, 2019).
Where a chain is given by its changes, count along the chain named. Names and notes keep the numbering of the source.

B1: PhaB1 (Cupriavidus necator H16) (protein)
chain: MTQRIAYVTGGMGGIGTAICQRLAKDGFRVVAGCGPNSPRREKWLEQQKALGFDFIASEGNVADWDSTKTAFDKVKSEVGEVDVLINNAGITRDVVFRKMTRADWDAVIDTNLTSLFNVTKQVIDGMADRGWGRIVNISSVNGQKGQFGQTNYSTAKAGLHGFTMALAQEVATKGVTVNTVSPGYIATDMVKAIRQDVLDKIVATIPVKRLGLPEEIASICAWLSSEESGFSTGADFSLNGGLHMG
B2: PhaB1 (Cupriavidus necator H16; N142V) (protein)
chain: B1 chain with N142V
B3: PhaB1 (Cupriavidus necator H16; N142V/Y185F) (protein)
chain: B1 chain with N142V, Y185F
B4: PhaB1 (Cupriavidus necator H16; Y185F) (protein)
chain: B1 chain with Y185F

Substrate: CC(=O)CC(=O)SCCNC(=O)CCNC(=O)[C@H](O)C(C)(C)COP(=O)(O)OP(=O)(O)OC[C@H]1O[C@@H](n2cnc3c(N)ncnc32)[C@H](O)[C@@H]1OP(=O)(O)O
Test: purified protein
Type: biochemical, Cupriavidus necator
Conditions: 200 μM NADPH, 1 to 20 μM acetoacetyl-CoA, 100 mM Tris-HCl pH 8.0, 30 °C
[1] = substrate inhibition above 12 μM

Protein | Km [1] [µM] | Vmax [1] [µmol/min/mg] | kcat [1] [s⁻¹] | kcat/Km [1] [M⁻¹ s⁻¹] | Km [µM] | Vmax [µmol/min/mg] | kcat [s⁻¹] | kcat/Km [M⁻¹ s⁻¹]
B1 | 1.99 ± 0.23 | 162 | 71.2 ± 2.7 | 3.58e+07 ± 4.4e+06 | – | – | – | –
B2 | – | – | – | – | 58.5 ± 18.1 | 175 | 76.7 ± 2.7 | 1.31e+06 ± 470000
B3 | – | – | – | – | 109 ± 38 | 53.9 | 23.7 ± 3.7 | 220000 ± 80000
B4 | – | – | – | – | 86.2 ± 20.6 | 127 | 55.8 ± 7.6 | 650000 ± 180000
